# B1: library; numbered along this chain (parent)
# chain: MRKPRAAVGSGHRKQAASQEGRQKHAKNNSQAKPSACDGLARQPEEVVLQASVSSYHLFRDVAEVTAFRGSLLSWYDQEKRDLPWRRRAEDEMDLDRRAYAVWVSEVMLQQTQVATVINYYTGWMQKWPTLQDLASASLEEVNQLWAGLGYYSRGRRLQEGARKVVEELGGHMPRTAETLQQLLPGVGRYTAGAIASIAFGQATGVVDGNVARVLCRVRAIGADPSSTLVSQQLWGLAQQLVDPARPGDFNQAAMELGATVCTPQRPLCSQCPVESLCRARQRVEQEQLLASGSLSGSPDVEECAPNTGQCHLCLPPSEPWDQTLGVVNFPRKASRKPPREESSATCVLEQPGALGAQILLVQRPNSGLLAGLWEFPSVTWEPSEQLQRKALLQELQRWAGPLPATHLRHLGEVVHTFSHIKLTYQVYGLALEGQTPVTTVPPGARWLTQEEFHTAAVSTAMKKVFRVYQGQQPGTCMGSKRSQVSSPCSRKKPRMGQQVLDNFFRSHISTDAHSLNSAAQ
# Variants of: B1
# Test: 8OG:A repair function score (normalized; synonymous = 0, nonsense = -1) (normalized log-likelihood score); higher = more repair activity (WT-like)
# Details: with 8OG:A DNA repair reporter (GFP) in HEK-293 MUTYH KO cells
# Method in brief: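 After 72 h, viable mCherry+ cells were split into GFP+ (repair) and GFP− bins in three replicates per tile. These cells were MUTYH knockout HEK-293 cells holding lentiviral MUTYH cDNA NNN codon-scan libraries, kept in 10 pg/ml doxycycline and co-transfected with mCherry plus an 8OG:A GFP repair reporter. Sequencing of tile amplicons gave per-tile Rosace fitness scores, normalized into a repair function score anchored on synonymous and nonsense distributions. Synonymous medians were fixed at 0, nonsense at -1, and variants under 300 counts per million at the start were removed.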
# 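Further: cells sorted at 72 h after reporter transfection.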
row,Variant,8OG:A repair function score
1,MRKPRAAVGSGHRKQAASQEGRQKHAKNNSQAKPSACDGLARQPEEVVLQASVSSYHLFRDVAEVTAFRGSLLSWYDQEKRDLPWRRRAEDEMDLDRRAYAVWVSEVMLQQTQVATVINYYTGWMQKWPTLQDLASASLEEVNQLWAGLGYYSRGRRLQEGARKVVEELGGHMPRTAETLQQLLPDVGRYTAGAIASIAFGQATGVVDGNVARVLCRVRAIGADPSSTLVSQQLWGLAQQLVDPARPGDFNQAAMELGATVCTPQRPLCSQCPVESLCRARQRVEQEQLLASGSLSGSPDVEECAPNTGQCHLCLPPSEPWDQTLGVVNFPRKASRKPPREESSATCVLEQPGALGAQILLVQRPNSGLLAGLWEFPSVTWEPSEQLQRKALLQELQRWAGPLPATHLRHLGEVVHTFSHIKLTYQVYGLALEGQTPVTTVPPGARWLTQEEFHTAAVSTAMKKVFRVYQGQQPGTCMGSKRSQVSSPCSRKKPRMGQQVLDNFFRSHISTDAHSLNSAAQ [G186D],-0.855
2,MRKPRAAVGSGHRKQAASQEGRQKHAKNNSQAKPSACDGLARQPEEVVLQASVSSYHLFRDVAEVTAFRGSLLSWYDQEKRDLPWRRRAEDEMDLDRRAYAVWVSEVMLQQTQVATVINYYTGWMQKWPTLQDLASASLEEVNQLWAGLGYYSRGRRLQEGARKVVEELGGHMPRTAETLQQLLPGVGRYTAGAIASIAFGQATGVVDGNVARVLCRVRAIGADPSSTLVSQQLWGLAQQLVDPARPGDFNQAAMELGATVCTPQRPLCSQCPVESLCRARQRVEQEQLLASGSLSGSPDVEECAPNTGQCHLCLPPSEPWDQTLGVVNFPRKASRKPPREESSATCVLEQAGALGAQILLVQRPNSGLLAGLWEFPSVTWEPSEQLQRKALLQELQRWAGPLPATHLRHLGEVVHTFSHIKLTYQVYGLALEGQTPVTTVPPGARWLTQEEFHTAAVSTAMKKVFRVYQGQQPGTCMGSKRSQVSSPCSRKKPRMGQQVLDNFFRSHISTDAHSLNSAAQ [P352A],-0.0351
3,MRKPRAAVGSGHRKQAASQEGRQKHAKNNSQAKPSACDGLARQPEEVVLQASVSSYHLFRDVAEVTAFRGSLLSWYDQEKRDLPWRRRAEDEMDLDRRAKAVWVSEVMLQQTQVATVINYYTGWMQKWPTLQDLASASLEEVNQLWAGLGYYSRGRRLQEGARKVVEELGGHMPRTAETLQQLLPGVGRYTAGAIASIAFGQATGVVDGNVARVLCRVRAIGADPSSTLVSQQLWGLAQQLVDPARPGDFNQAAMELGATVCTPQRPLCSQCPVESLCRARQRVEQEQLLASGSLSGSPDVEECAPNTGQCHLCLPPSEPWDQTLGVVNFPRKASRKPPREESSATCVLEQPGALGAQILLVQRPNSGLLAGLWEFPSVTWEPSEQLQRKALLQELQRWAGPLPATHLRHLGEVVHTFSHIKLTYQVYGLALEGQTPVTTVPPGARWLTQEEFHTAAVSTAMKKVFRVYQGQQPGTCMGSKRSQVSSPCSRKKPRMGQQVLDNFFRSHISTDAHSLNSAAQ [Y100K],-1.96
4,MRKPRAAVGSGHRKQAASQEGRQKHAKNNSQAKPSACDGLARQPEEVVLQASVSSYHLFRDVAEVTAFRGSLLSWYDQEKRDLPWRRRAEDEMDLDRRAYAVWVSEVMLQQTQVATVINYYTGWMQKWPTLQDLASASLEEVNQLWAGLGYYSRGRRLQEGARKVVEELGGHMPRTAETLQQLLPGVGRYTAGAIASIAFGQATGVVDGNVARVLCRVRAIGADPSSTLVQQQLWGLAQQLVDPARPGDFNQAAMELGATVCTPQRPLCSQCPVESLCRARQRVEQEQLLASGSLSGSPDVEECAPNTGQCHLCLPPSEPWDQTLGVVNFPRKASRKPPREESSATCVLEQPGALGAQILLVQRPNSGLLAGLWEFPSVTWEPSEQLQRKALLQELQRWAGPLPATHLRHLGEVVHTFSHIKLTYQVYGLALEGQTPVTTVPPGARWLTQEEFHTAAVSTAMKKVFRVYQGQQPGTCMGSKRSQVSSPCSRKKPRMGQQVLDNFFRSHISTDAHSLNSAAQ [S231Q],-0.132
5,MRKPRAAVGSGHRKQAASQEGRQKHAKNNSQAKPSACDGLARQPEEVVLQASVSSYHLFRDVAEVTAFRGSLLSWYDQEKRDLPWRRRAEDEMDLDRRAYAVWVSEVMLQQTQVATVINYYTGWMQKWPTLQDLASASLEEVNQLWAGLGYYSRGRRLQEGARKVVEELGGHMPRTAETLQQLLPGVGRYTAGAIASIAFGQATGVVDGNVARVLCRVRAIGADPSSTLVSQQLWGLAQQLVDPARPGDFNQAAMELGATVCTPQRPLCSQCPVESLCRARQRVEQEQLLMSGSLSGSPDVEECAPNTGQCHLCLPPSEPWDQTLGVVNFPRKASRKPPREESSATCVLEQPGALGAQILLVQRPNSGLLAGLWEFPSVTWEPSEQLQRKALLQELQRWAGPLPATHLRHLGEVVHTFSHIKLTYQVYGLALEGQTPVTTVPPGARWLTQEEFHTAAVSTAMKKVFRVYQGQQPGTCMGSKRSQVSSPCSRKKPRMGQQVLDNFFRSHISTDAHSLNSAAQ [A291M],-0.0586
6,MRKPRAAVGSGHRKQAASQEGRQKHAKNNSQAKPSACDGLARQPEEVVLQASVSSYHLFRDVAEVTAFRGSLLSWYDQEKRDLPWRRRAEDEMDLDRRAYAVWVSEVMLQQTQVATVINYYTGWMQKWPTLQDLASASLEEVNQLWAGLGYYSRGRRLQEGARKVVEELGGHMMRTAETLQQLLPGVGRYTAGAIASIAFGQATGVVDGNVARVLCRVRAIGADPSSTLVSQQLWGLAQQLVDPARPGDFNQAAMELGATVCTPQRPLCSQCPVESLCRARQRVEQEQLLASGSLSGSPDVEECAPNTGQCHLCLPPSEPWDQTLGVVNFPRKASRKPPREESSATCVLEQPGALGAQILLVQRPNSGLLAGLWEFPSVTWEPSEQLQRKALLQELQRWAGPLPATHLRHLGEVVHTFSHIKLTYQVYGLALEGQTPVTTVPPGARWLTQEEFHTAAVSTAMKKVFRVYQGQQPGTCMGSKRSQVSSPCSRKKPRMGQQVLDNFFRSHISTDAHSLNSAAQ [P174M],-0.732
